Legend:
[1] = target: T1, recombinant SARS-CoV-2 RBD protein (wild-type) (SARS-CoV-2; human, UniProt P0DTC2 306-543); assay: ELISA (FIG. 18A)
T1 construct: range 306-543

[2] = target: T1, recombinant SARS-CoV-2 RBD protein …; assay: ELISA (FIG. 18C)
[3] = target: T1, recombinant SARS-CoV-2 RBD protein …; assay: ELISA (FIG. 18B)
[4] = target: T1, recombinant SARS-CoV-2 RBD protein …; assay: ELISA (FIG. 18E)

B1: A-1H4 antibody (format in FIG. 18 not stated) (antibody, V domains shown)
VH: EVQLVESGGGLVQPGRSLRLSCAASGFTVSSNYMSWVRQAPGKGLEWVSGIYSGGSTYYADSVKGRFTISRDNSKNTLYLQMNSLRAEDTAVYYCARDLQEAGAFDIWGQGTMVTVSS
VL: ELQLTQSPSFLSASVGDRVTITCRASQGISSYLAWYQQKPGKAPKLLIYAASTLQSGVPSRFSGSGSGTEFTLTISSLQPEDFATYYCQQLNSYPRLTFGGGTKVEIK
binding result [1]: binds

B2: A-2H4 antibody (format in FIG. 18 not stated) (antibody, V domains shown)
VH: QMQLVESGGGLVQPGRSLRLSCAASGFTFSVYGMHWVRQAPGKGLEWVAVISYDGSNKYYADSVKGRFSISRDNSKNTLYLQMNSLRGEDTAVYYCAKGGPRPVVKAYGELDYYGMDVWGQGTTVTVSS
VL: ELALTQPASVSGSPGQSITISCTGTSSDIGGYEYVSWYQQHPGKAPKLIIYDVRDRPSGISNRFSGSKSGNTASLIISSLQAGDEADYYCFSYTSSGTYVFGSATKVTVL
binding result [2]: binds

B3: A-2F1 antibody (format in FIG. 18 not stated) (antibody, V domains shown)
VH: QVQLVQSGGGLIQPGGSLRLSCAASGVTVSSNYMSWVRQAPGKGLEWVSVIYSGGSTFYADSVKGRFTISRDNSKNTLYLQMNSLRAEDTAVYYCARDLMEAGGMDVWGQGSTVTVSS
VL: ELALTQPPSASGSPGQSVTISCTASSSDIGASNHVAWYQQNPGKAPKLMIYGVSGRPSGVPDRFSGSKSGNTASLTVSGLQAEDEADYYCSSYAGSNILIFGGGTKLTVL
binding result [3]: binds

B4: E-3G9 antibody (format in FIG. 18 not stated) (antibody, V domains shown)
VH: QMQLVQSGAEVKKPGASVKVSCKASGHTITSYYMHWVRQAPGQGLEWMGIINPSGGSTSYAQKFQGRVTMTRDTSTSTVYMELSSLRSEDTAVYYCAREGVWDSSGYSSFDYWGQGTLVTVSS
VL: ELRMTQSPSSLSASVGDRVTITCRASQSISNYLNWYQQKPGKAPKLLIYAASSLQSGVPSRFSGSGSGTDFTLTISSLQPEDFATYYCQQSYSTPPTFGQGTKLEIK
binding result [4]: binds

From patent US20210395346A1 (SEOUL NATIONAL UNIVERSITY R AND DB FOUNDATION, published 2021)
